According to paper PMC4802922, “Conserved motif VIII of murine DNA methyltransferase Dnmt3a is essential for methylation activity”:

What was measured:
Dnmt3a-CD R200K = Dnmt3a-CD R200K (Mus musculus, UniProt O88508 608-908, R786K); experiment: fluorescence polarization; Kd1; 0.1 mM AdoHcy; Fluorescence polarization: 10 nM duplex, 0.1 mM AdoHcy, Dnmt3a reaction buffer (composition not given), 25 °C; enzyme up to 600-800 nM; conditions: protein: recombinant; tags: His6; chain copies: 2; label: 5'-FAM on strand 1 (hexamethylene linker); blunt
Chain of Dnmt3a-CD R200K (O88508 608-908 R786K): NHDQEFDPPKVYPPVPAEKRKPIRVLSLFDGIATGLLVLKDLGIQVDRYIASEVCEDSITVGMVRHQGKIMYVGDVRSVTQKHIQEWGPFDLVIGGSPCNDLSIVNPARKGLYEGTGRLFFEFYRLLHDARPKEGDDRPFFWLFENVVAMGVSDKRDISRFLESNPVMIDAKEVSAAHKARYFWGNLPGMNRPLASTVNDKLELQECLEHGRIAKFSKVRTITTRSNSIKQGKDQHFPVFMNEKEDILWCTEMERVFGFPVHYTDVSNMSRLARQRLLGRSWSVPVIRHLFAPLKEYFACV

Dnmt3a-CD R200E = Dnmt3a-CD R200E (Mus musculus, UniProt O88508 608-908, R786E); experiment: as above; conditions: protein: recombinant; tags: His6; chain copies: 2; label: 5'-FAM on strand 1 (hexamethylene linker); blunt
Chain of Dnmt3a-CD R200E (O88508 608-908 R786E): as the sequence (O88508 608-908 R786K) above, with K179E counted along it

Dnmt3a-CD R200A = Dnmt3a-CD R200A (Mus musculus, UniProt O88508 608-908, R786A); experiment: as above; conditions: protein: recombinant; tags: His6; chain copies: 2; label: 5'-FAM on strand 1 (hexamethylene linker); blunt
Chain of Dnmt3a-CD R200A (O88508 608-908 R786A): as the sequence (O88508 608-908 R786K) above, with K179A counted along it

Dnmt3a-CD wt = Dnmt3a-CD wt (Mus musculus, UniProt O88508 608-908); experiment: fluorescence polarization; Kd1 (first complex); 0.1 mM AdoHcy; Fluorescence polarization: 10 nM duplex, 0.1 mM AdoHcy, Dnmt3a reaction buffer (composition not given), 25 °C; enzyme up to 600-800 nM; conditions: protein: recombinant; tags: His6 (N-terminal in Methods, C-terminal in Results); chain copies: 2; label: 5'-FAM on strand 1 (hexamethylene linker); blunt
Chain of Dnmt3a-CD wt (O88508 608-908): as the sequence (O88508 608-908 R786K) above, with K179R counted along it

B1: fGCGC/CGCG (dsDNA)
DNA 1: CTGAATACTACTTGCGCTCTCTAACCTGAT
DNA 2: ATCAGGTTAGAGAGCGCAAGTAGTATTCAG
Kd (Dnmt3a-CD R200K): 55 ± 14 nM
Kd (Dnmt3a-CD R200E): 159 ± 37 nM
Kd (Dnmt3a-CD R200A): 79 ± 17 nM
Kd (Dnmt3a-CD wt): 73 ± 17 nM
